Experimental data: patent publication US20150079112A1 (SAMSUNG ELECTRONICS, published 2015)

B1: FLAG-tagged hAng2 (ligand)
chain: YNNFRKSMDSIGKKQYQVQHGSCSYTFLLPEMDNCRSSSSPYVSNAVQRDAPLEYDDSVQRLQVLENIMENNTQWLMKLENYIQDNMKKEMVEIQQNAVQNQTAVMIEIGTNLLNQTAEQTRKLTDVEAQVLNQTTRLELQLLEHSLSTNKLEKQILDQTSEINKLQDKNSFLEKKVLAMEDKHIIQLQSIKEEKDQLQVLVSKQNSIIEELEKKIVTATVNNSVLQKQQHDLMETVNNLLTMMSTSNSAKDPTVAKEEQISFRDCAEVFKSGHTTNGIYTLTFPNSTEEIKAYCDMEAGGGGWTIIQRREDGSVDFQRTWKEYKVGFGNPSGEYWLGNEFVSQLTNQQRYVLKIHLKDWEGNEAYSLYEHFYLSSEELNYRIHLKGLTGTAGKISSISQPGNDFSTKDGDNDKCICKCSQMLTGGWWFDACGPSNLNGMYYPQRQNTNKFNGIKWYYWKGSGYSLKATTMMIRPADF
notes: not shown: FLAG tag
B2: Ang2 protein (R&D systems) (ligand)
chain: B1 chain
notes: It may be the same product as the C-His hAng2 of the SPR; also called human Ang2 protein (R&D systems; 623-AN-025/CF)
B3: 4H10 (antibody, V domains shown)
VH: EVQLLESGGGLVQPGGSLRLSCAASGFTFSSYDMSWVRQAPGKGLEWVSLISPDSSSIYYADSVKGRFTISRDNSKNTLYLQMNSLRAEDTAVYYCAKDLISFWRGGFDYWGQGTLVTVSS
VL: QSVLTQPPSASGTPGQRVTISCSGSSSNIGSNYVNWYQQLPGTAPKLLIYADSNRPSGVPDRFSGSKSGTSASLAISGLRSEDEADYYCGSWDYSLSGYVFGGGTKLTVLG
notes: also called antibody 4H10

Tests used:
hTie2-Fc (R&D Systems) [1] = biological target: T1, hTie2-Fc (R&D Systems) (human, UniProt Q02763 23-745); assay: competition ELISA: FLAG-tagged hAng2 (400 ng/ml) bound to coated hTie2-Fc in the presence of titrated 10D6, detected with anti-FLAG-HRP
T1 construct: also called hTie-2/Fc fusion protein; not shown: Fc of human IgG1
T1 sequence (Q02763 23-745 limits assumed): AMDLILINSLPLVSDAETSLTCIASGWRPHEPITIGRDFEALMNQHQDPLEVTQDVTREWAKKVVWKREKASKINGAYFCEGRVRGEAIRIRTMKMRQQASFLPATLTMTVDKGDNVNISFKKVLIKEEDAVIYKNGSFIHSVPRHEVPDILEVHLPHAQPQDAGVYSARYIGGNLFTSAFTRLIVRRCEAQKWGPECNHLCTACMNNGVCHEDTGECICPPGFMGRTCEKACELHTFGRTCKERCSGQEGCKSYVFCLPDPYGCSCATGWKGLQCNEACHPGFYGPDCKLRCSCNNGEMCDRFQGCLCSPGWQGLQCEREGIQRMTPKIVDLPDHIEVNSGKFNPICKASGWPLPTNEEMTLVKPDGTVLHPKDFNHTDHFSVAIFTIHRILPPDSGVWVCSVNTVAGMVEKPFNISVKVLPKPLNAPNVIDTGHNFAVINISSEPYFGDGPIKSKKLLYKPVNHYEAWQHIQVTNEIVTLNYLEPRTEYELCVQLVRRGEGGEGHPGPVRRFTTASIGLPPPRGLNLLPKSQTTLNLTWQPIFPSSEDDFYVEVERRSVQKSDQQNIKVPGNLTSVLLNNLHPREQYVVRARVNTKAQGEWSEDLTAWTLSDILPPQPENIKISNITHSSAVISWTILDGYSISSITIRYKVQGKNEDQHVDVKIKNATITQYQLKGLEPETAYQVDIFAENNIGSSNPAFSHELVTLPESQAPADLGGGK
Method: (§1) More specifically, MaxiSorp™ flat-bottom plate (Nunc) of 96-well was coated with hTie2-Fc (R&D Systems) which is a protein bound with 4 ug (microgram)/ml of Fc of human IgG1. After that, the plate was washed five times with 0.05% (v/v) Tween-20-containing PBS (phosphate buffer saline) and then blocked with 1% (v/v) BSA (bovine serum albumin; Sigma)-containing PBS at a room temperature for 2 hour.
(§2) For Ang2:Tie2 competition ELISA, each anti-Ang2 antibody obtained in Example 2 was placed at various concentrations of 400 nM to 0.001 nM into each well coated with the hTie-2/Fc fusion protein along with 1% (v/v) BSA and 400 ng/ml of a FLAG-tagged hAng2 and then, the plate was allowed to react at a room temperature for 2 hours and washed five times with PBST. After that, an anti-FLAG antibody (Sigma) conjugated with HRP diluted in 1% (v/v) BSA-containing PBS at a ratio of 1:5,000 (v/v) was added in an amount of 100 ul (microliter) to each well to react at a room temperature for 1 hour and then, the plate was washed five times with PBST. Lastly, 100 ul (microliter) of TMB substrate (Cell Signaling) was added to each well of the plate to induce color development for 3 min. and then, the reaction was ceased by the addition of 100 ul of Stop solution (Cell Signaling) and OD450 values were measured on a plate reader (Molecular Devices).

hTie2-Fc (R&D Systems) [2] = biological target: T1, hTie2-Fc (R&D Systems); assay: ELISA, coated Tie2-Fc 4 ug/ml, Ang2 0.25 ug/ml and 10D6 2 ug/ml added, anti-mouse IgG-HRP, OD450
Method: A 96-well MaxiSorp™ flat-bottom plate (Nunc) was coated with 4 ug/ml of Tie2-Fc (R&D systems) or BSA (Sigma). Then, the plate was washed five times with 0.05% (v/v) Tween-20-containing PBS (Phosphate Buffer Saline) and blocked with 1% (v/v) BSA (Bovine serum albumin; Sigma)-containing PBS at a room temperature for 2 hours. 0.25 ug/ml of Ang2 and 2 ug/ml of antibody 10D6 were added to each well of the plate, which was allowed to react at a room temperature for 2 hours and then washed five times with PBST. After that, an anti-mouse IgG antibody (Sigma) conjugated with HRP diluted in 1% (v/v) BSA-containing PBS at a ratio of 1:5,000 (v/v) was added in an amount of 100 ul to each well to react at a room temperature for 1 hour and then, the plate was washed five times with PBST. Lastly, 100 ul (microliter) of TMB substrate (Cell Signaling) was added to each well of the plate to induce color development for 3 min. and then, the reaction was ceased by the addition of 100 ul of Stop solution (Cell Signaling) and OD450 values were measured on a plate reader (Molecular Devices).

FLAG-tagged hAng2 = biological target: B1; assay: competition ELISA: antibody titrated with FLAG-tagged hAng2 (400 ng/ml) on coated hTie2-Fc, bound Ang2 detected with anti-FLAG-HRP; blocked ligand pair Ang2-Tie2
Method: as §1
as §2, with “Devices). […]” for “Devices).”

B1
binding result (hTie2-Fc (R&D Systems) [1]): binds

B2
binding result (hTie2-Fc (R&D Systems) [2]): binds

B3
IC50 (read off the curve) (FLAG-tagged hAng2): ~0.2 nM
